We go through one molecule from patent US20210171647A1 (WUXI BIOLOGICS SHANGHAI, published 2021).

Test [1] deals with T1, human OX40-ECD.His T62A (human, UniProt P43489 29-214).
T1 construct: extracellular domain; not shown: C-terminal His-tag
T1 sequence (looked up): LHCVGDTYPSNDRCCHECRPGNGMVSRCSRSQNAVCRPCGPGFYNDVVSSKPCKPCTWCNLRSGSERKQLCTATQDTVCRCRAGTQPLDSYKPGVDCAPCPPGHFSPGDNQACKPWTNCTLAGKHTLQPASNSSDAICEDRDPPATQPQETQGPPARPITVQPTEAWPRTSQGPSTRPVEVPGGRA
As to the kind of experiment: ELISA, antibody coated, OX40-ECD.His mutant supernatant; relative to silent alanine substitutions.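 Further: captured OX40 mutant protein detected with HRP-labelled anti-His antibody, absorbance read-out, scaled to the mean signal of control mutants.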

The target of test [2] is T2, human 4-1BB (CD137) ECD (human, UniProt Q07011 24-186).
T2 construct: extracellular domain
The test can be described thus: ELISA on coated ECD, one antibody concentration (not given). Background: An ELISA detects its analyte on a solid surface through an enzyme-linked reagent.

Test [3] addresses T3, human CD40 ECD (human, UniProt P25942 21-193).
T3 construct: extracellular domain
Described as above.
Procedure: (§1) Human OX40, CD40, 4-1BB (CD137) and CD271 ECD were coated on plates (Nunc) overnight at 4° C. After blocking and washing, testing antibodies were diluted in blocking buffer and added to the plates and incubated at room temperature for 1 h. The plates were then washed and subsequently incubated with secondary antibody goat anti-human IgG Fc-HRP (Bethyl) for 1 h. After washing, TMB substrate was added and the interaction was stopped by 2M HCl.

In test [4] the target is T4, human CD271 ECD (human, UniProt P08138 29-250).
T4 construct: extracellular domain
T4 sequence (looked up): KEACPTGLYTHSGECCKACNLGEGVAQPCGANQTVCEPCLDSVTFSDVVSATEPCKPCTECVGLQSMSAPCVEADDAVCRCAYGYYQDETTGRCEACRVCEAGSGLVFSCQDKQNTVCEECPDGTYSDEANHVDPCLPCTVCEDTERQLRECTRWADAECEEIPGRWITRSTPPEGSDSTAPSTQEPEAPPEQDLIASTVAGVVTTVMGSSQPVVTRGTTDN
Described as above.
Procedure: as §1

The target of test [5] is T5, human OX40 extracellular domain (ECD) protein (human, UniProt P43489 29-214).
T5 construct: extracellular domain; also called human OX40 ECD; human OX40 protein; not shown: human Fc or His tag
T5 sequence (looked up): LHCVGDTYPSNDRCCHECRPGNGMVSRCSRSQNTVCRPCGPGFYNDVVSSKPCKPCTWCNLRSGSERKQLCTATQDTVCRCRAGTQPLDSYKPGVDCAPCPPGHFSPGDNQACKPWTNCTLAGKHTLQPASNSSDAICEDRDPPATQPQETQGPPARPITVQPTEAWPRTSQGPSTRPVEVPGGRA
The test can be described thus: competition ELISA: human OX40 ECD coated, antibody titrated in a mix with a constant concentration of OX40L, bound OX40L detected at OD450.

Test [6] addresses T6, human OX40, full-length, on cells (human, UniProt P43489 29-277).
T6 construct: whole, on cells; also called hPro1; cell surface human OX40
T6 sequence (looked up): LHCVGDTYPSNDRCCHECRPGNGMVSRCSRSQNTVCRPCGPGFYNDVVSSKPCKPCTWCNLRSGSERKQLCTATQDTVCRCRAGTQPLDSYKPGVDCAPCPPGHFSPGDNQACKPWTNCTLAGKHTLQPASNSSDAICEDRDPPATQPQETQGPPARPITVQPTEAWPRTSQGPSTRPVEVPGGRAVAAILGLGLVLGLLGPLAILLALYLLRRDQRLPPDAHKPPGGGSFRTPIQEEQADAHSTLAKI
As to the kind of experiment: FACS, transfected 293F cells, antibody 1 ug/mL. In general terms: Flow cytometry measures light scatter and fluorescence of single cells or particles in a stream.
Procedure: (§2) Binding of antibodies to chimeric OX40 variants was analyzed by flow cytometry. […] Cells were analyzed using flow cytometer.

Test [7] deals with T7, mouse OX40 (mPro1) on transfected 293F cells (mouse, UniProt P47741 20-272).
T7 construct: whole, on cells
T7 sequence (looked up): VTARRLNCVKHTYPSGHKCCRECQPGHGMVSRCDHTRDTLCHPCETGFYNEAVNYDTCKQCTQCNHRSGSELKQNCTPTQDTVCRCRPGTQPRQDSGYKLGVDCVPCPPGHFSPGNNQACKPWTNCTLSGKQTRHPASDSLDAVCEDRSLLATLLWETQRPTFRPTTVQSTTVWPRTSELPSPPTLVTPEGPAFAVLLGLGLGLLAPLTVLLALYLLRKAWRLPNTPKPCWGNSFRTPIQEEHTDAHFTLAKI
As to the kind of experiment: FACS, transfected 293F cells, antibody 1 ug/mL.
Procedure: as §2

The target in test [8] is T6, human OX40, full-length, on cells. The test can be described thus: flow cytometry on activated human CD4+ T cells.
Procedure: Briefly, human OX40-expressing CHO-K1 cells or activated human CD4⁺ T cells were transferred into 96-well U-bottom plates (Corning) at a density of 1×10⁵ cells/well. Testing antibodies were serially diluted in wash buffer (1×PBS/1% BSA) and incubated with cells at 4° C. for 1 h. After washing with 1×PBS/1% BSA, the secondary antibody goat anti-human IgG Fc-PE (Jackson ImmunoResearch Lab) was applied and incubated with cells at 4° C. in the dark for 1 h. The cells were then washed and resuspended in 1×PBS/1% BSA or fixed with 4% paraformaldehyde, and then analyzed by flow cytometry (BD).

T2 sequence (Q07011 24-186): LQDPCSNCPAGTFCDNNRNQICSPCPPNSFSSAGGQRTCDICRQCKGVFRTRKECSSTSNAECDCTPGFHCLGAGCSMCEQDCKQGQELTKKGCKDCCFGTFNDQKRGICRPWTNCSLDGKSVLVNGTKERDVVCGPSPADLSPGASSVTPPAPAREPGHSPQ
T3 sequence (P25942 21-193): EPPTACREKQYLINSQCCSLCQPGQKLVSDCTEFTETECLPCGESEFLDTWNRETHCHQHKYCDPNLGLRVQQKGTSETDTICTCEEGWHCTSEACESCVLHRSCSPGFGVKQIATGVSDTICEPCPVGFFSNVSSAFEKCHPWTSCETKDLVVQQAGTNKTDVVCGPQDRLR

B1: 1.134.9-u1-IgG1L (antibody, V domains shown)
VH: QVQLQESGPGLVKPSGTLSLTCAVSGGSISSYNWWSWVRQPPGKGLEWIGEIYHGGNTNYNPSLKSRVTMSVDNSKNQFSLKLSSVTAADTAVYYCARAPGDWGGSPYFDFWGQGTLVTVSS
VL: SSELTQDPAVSVALGQTVRITCQGDNLRTYYASWYQQKPGQAPILLIYGRNKRPSGIPDRFSGSSSGNTASLTITGAQAEDEAAYYCNSRDSSGNPVVFGGGTKLTVL
notes: fully human IgG1, lambda
One may read the EC50 (read off the curve) as the concentration that produces a half-maximal response. A higher EC50 (read off the curve) goes with a need for much substance. B1: the “Fold Change” value in test [1] amounted to 0.923. Also, the binding result in test [2], in test [3] and in test [4] was “no binding” each time. In test [5], the “IC50 (read off the curve)” value was approximately 1 nM. In addition, the MFI in test [6] is 9160; in test [7], 44.4. In addition, the “PE + %” value in test [6] turned out to be 85.2%; in test [7] it was 0.937%. In test [8], the “EC50 (read off the curve)” value was in the range of 1 to 2 nM.
